We go through 2 molecules from patent publication US20240400689A1.

The target in test [1] is mouse CD276 protein (mouse) (UniProt Q8VE98). Kind of test: FACS on CHO-S-mCD276 cells.
The target of test [2] is human CD276 protein (human) (UniProt Q5ZPR3). Kind of test: cell-based or functional assay.
Test [3] has the same target. Kind of test: FACS on SKOV3 cells.
Test [4] addresses T1, HUMAN B7H3 (Biacore analyte) (human) (UniProt Q5ZPR3).
T1 sequence (looked up): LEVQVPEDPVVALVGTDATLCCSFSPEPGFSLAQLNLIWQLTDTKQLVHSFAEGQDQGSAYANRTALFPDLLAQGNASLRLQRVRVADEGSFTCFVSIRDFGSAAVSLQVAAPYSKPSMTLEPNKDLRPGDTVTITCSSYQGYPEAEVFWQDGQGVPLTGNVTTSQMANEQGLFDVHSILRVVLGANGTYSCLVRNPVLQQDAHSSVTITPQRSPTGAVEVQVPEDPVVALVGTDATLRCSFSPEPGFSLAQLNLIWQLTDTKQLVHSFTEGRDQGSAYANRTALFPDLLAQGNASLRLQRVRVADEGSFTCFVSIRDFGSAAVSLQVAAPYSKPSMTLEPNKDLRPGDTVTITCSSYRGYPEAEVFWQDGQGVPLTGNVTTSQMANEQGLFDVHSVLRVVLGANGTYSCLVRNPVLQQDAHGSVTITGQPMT
Kind of test: SPR, Biacore 8K, antibody captured, B7H3 as analyte, 1:1 binding. (In general: SPR reads the build-up and loss of mass on a sensor chip optically.)

Chain of mouse CD276 protein (mouse) (Q8VE98 29-316): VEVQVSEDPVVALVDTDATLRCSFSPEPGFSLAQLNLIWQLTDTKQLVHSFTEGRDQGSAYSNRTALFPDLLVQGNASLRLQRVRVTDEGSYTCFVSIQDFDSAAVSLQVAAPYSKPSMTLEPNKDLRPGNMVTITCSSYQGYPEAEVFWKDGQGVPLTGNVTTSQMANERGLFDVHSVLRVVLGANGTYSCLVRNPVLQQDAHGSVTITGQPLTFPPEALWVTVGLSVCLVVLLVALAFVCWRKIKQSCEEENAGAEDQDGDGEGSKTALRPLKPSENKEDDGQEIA

B1: 10-B9-D10-A12 (antibody, V domains shown)
VH: EVQLQESGPELVRPGVSVKISCKGSGYTFTDYTMHWVKLSHAKSLEWIGVISTYYGNTNYNQKFKGKATLTVDKSSSTAYMELARLTSEDSAIYYCARASYGSGYGPYYWYFDVWGAGTTVTVSS
VL: DIQMTQSPASLFASVGETVTITCRASEKIYSYLAWYFQKQGKSPQFLVYNANALAEGVPSRFSGSGSGTQFSLKINSLQPEDFGTYYCQHHYGTPVTFGAGSKLELK
With B1, the FACS MFI in test [1] was found to be 3170.

B2: Enoblituzumab (antibody, part only; not given: constant regions, V domains shown, not shown: another chain or arm of the molecule)
VH: EVQLVESGGGLVQPGGSLRLSCAASGFTFSSFGMHWVRQAPGKGLEWVAYISSDSSAIYYADTVKGRFTISRDNAKNSLYLQMNSLRDEDTAVYYCGRGRENIYYGSRLDYWGQGTTVTVSS
VL: DIQLTQSPSFLSASVGDRVTITCKASQNVDTNVAWYQQKPGKAPKALIYSASYRYSGVPSRFSGSGSGTDFTLTISSLQPEDFATYYCQQYNNYPFTFGQGTKLEIK
Broadly, the EC50 is the midpoint of the concentration-response curve. A low value points to a more potent agent. The Kd is the equilibrium constant for the complex coming apart. The low end stands for tighter binding, the high end for weaker binding. As usually defined, the koff is the rate constant with which the complex falls apart. The low end stands for a long-lived complex, the high end for a short-lived complex. One may read the kon as a measure of how fast the partners come together. Low values mean slower complex formation, high ones faster complex formation. In test [2], B2 gave an EC50 of antibody induced ADCC effect on SKOV3 of 0.0864 µg/mL; an EC50 of antibody induced CDC effect of 7.28 nM; a Top cytotoxicity (%), CDC of 80.1%. In test [3], this molecule yielded an EC50 of 0.985 µg/mL and an MFI (Max) of 830. In test [4], this molecule gave a Kd of 3.8 nM, a koff of 0.000486 s⁻¹ and a kon of 128000 M⁻¹ s⁻¹.
